Data on 18 sequences can be found in a protein production outcome set (Wang et al. 2014).
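Also: failed if final PepcDB status was selected cloned or expressed and not failed if soluble or beyond.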

This data set in a line: label from the status in PepcDB records.
As for “MKYSTRADIQDYLKQGYQLVSDNFVTGTTFDTDDRTDQIYEVHFKHGIESDFEKRNVKETVHYRYDNGQLARPIYQNVLNFERKVETDQVTKQRNYKNWQAVDGTSFKRVVSPYIKGYTAVPKLIDEITNINENHKNIEKIVVYKANDEKAQVKYFDDTTGRKLSEQFLHGAYGSRDVYRTANTIQHYKQMGYELVSDDYPKNGAKYSQDKLVRVYEIHLKHKIIEQSEKSTVKEVIHYLYDNGHLAKPVYESVLNFSRMVGIDQVTGKKYYGIWQATEGTSFKKVVSPKIEGYTALPKVVVAINNINVNHANIEKIVVYKANDEKARVKYFDDTIGRKLSEQLLHGVYGSRDVYRTANTIQRYKQMGYELVSDNYPKNGANYSQDKLVRVYEIHLKHKIVKQPEKSTVKEVIHYLYDNGQPAGPIYENELDFKRIIEFDQVTKQKRYGNWQAIDGTYFKKVDSPKIIGYTPTLEAIETINNIDGSHKDIEETVVYKINDEKAQVTYYDDTTRKKLSEKGLNGAYRTRDSYRTVDAINQYKWAGYELVSDDYPQNGVFYDQDKLIKMYEVHLKHGEKMDFEQRAVKEVIYYQYDDGQLAEPTYKNKLSFRRIVKIDQVTGQKYYGVWQAVDGTNFRSVVSPIIEGYTPIPEIVRAINNINSYHQDVEKTVVYQANKQNEVVGGNSPKKFKQIKIILVRVIHPNREVRINTEKSHTKK”, the protein production entry is reported as “failed”.

Consider “MKYVPSFKSLKETENGWELQVSWMITVTLRVTMQKSRDEITYLIKKTEGLVKINSYLRFIILPTRDRTVVRLTFFYKGPFERVAKRQTEEFYRRGVEIFKRDLESVQVERKEERGAPSNAKLLLNMRTLLSTQIGKDQLDEVLEQAMLWSVNSQVFVLISDGSRRVELRFRNGDLESGGDLSSLGDKITVIVKGDRAD”, for which the protein production result is listed as “failed”.

Turning to “MLADELTIGPIRAVPMDITPKYVGIASGLMNAGSAVADIISPIAFGIIIDKTGNWSLPFYGSVALLVIGIFLTFFMRPDKSL”, the protein production result is recorded as “failed”.

On to “MLADHARALDALRSALTPLKAELVAAELESIPVSRLKDVTEGRLRLGAVEAAGFTSVRGVYEAGRYELRQLPGVGEQTADRALAAARQIARAVAETVSVRLDVDHPEPRTTALVVALHRLVEAGPELRRALDAATRLDERLGALLPAARPAGGRLRLALAGRHRREDALAAAAETRDLVAEATARDVPLLLAQASTDLLRDPASDIEAWVDFELRSAEYYSQLAEVSEHRPDAEAGEGFLPSGVAERVHAQPLDDTHRRVSLRGYQSFGARFALAQRRVVLGDEMGLGKTVQAIAALAHLAAEGHSHFLVVCPASVLINWTREIRARSTLRALPVHGADRRDAYEEWRERGGVAVTTFDVLHSLPVPDTEKPGMLVVDEAHYVKNPDTRRAKAVTGWTAHCDRVLFLTGTPMENRVEEFRALVRHLQPALLPAVQGGGVAAGPHAFRKSVAPAYLRRNQQDVLTELPALVQVDEWEELSAADRDAYRKAVAEGNFMAMRRAAYADAEKSAKLGRLRELVAEAADNGLKVVVFSYFREVLATVQQCLGEPVLGPISGGVPAARRQRLVDAFAAIDGHAVLLAQIEAGGTGLNLQAASVVILCEPQVKPTMEHQAVARAHRMGQIRTVQVHRLLATDSVDDRLLRILKNKDRLFDAYARRSDIAEATPDAVDVSDASLARRIVEEEQQRLAARPADQPARTTS”, for which the protein production entry is “failed”.

In the case of “MLADPAQPEHVFIVEDSRGATELKLYKSHYTIGKADSCDIRLHSIYASRQHATLVRFLTENGEVRYRLIDGDPETSRRSANGTYVNNRSITECDLKHYDQILFGADVKATYFYLSPQFRSLEHHHHHH”, the protein production entry is recorded as “failed”.

Take “MLAFFIFLSTLVLLFWRPWNLPIWVFSSLGAFFVFIFQLVDFKDACFVFSLVWDSSLTLVGLIILSFSLEALGFFDFIASKILYFSREKNQEKIYISTKKMMLFLLIFVFFLSAFFANDGAILIITPIIIALFSTLKDCKNHAFILSSFLLSLSFLCDASSNALVISNLTNIITANYFKIEFLEFAKNMFLPNFFVLLSTIVTVFVLYVRVLPKRLEFKLIKKEQISLKLFFLCIVFLFLFVISFFIGEIFNIKISFFALLWAGIFWLIILKIQGKKSIKILFEAPYGVLLFSFGLYMVVFALHKIGVSEILVKSYAFLMQDKSGIFGVALISAFGSSVFNNLPMVLIGDLALKEYFENFSFDSLMIYAHLLGVNIGPKLTPIGSLATLLWLGVLARKGINISFWQYCKFGFLITLPVLVFSLFALIV”: the protein production entry is reported as “failed”.

For “MLAFNLLRSAHMLNPALQVLAKDGSIADNTYQPIAEDGVIPAGDVVMTTAQLDQLTAIQGKKALYITVNDSPETHQFPLDQLDAIFIEFAGFNDGRGYSFAALLRRQGYQGELRAVGDIFKDVLNYLKRSGFDTFVIKEGKDIQEAAAGLNDFRQPYQASTAVPQADYQTGA”, the protein production entry is given as “failed”.

Regarding “MLAGATLAIGVIAPQVLPATAHADEQTGESTVNLRILETSDIHVNLMNYDYYQTKTDNKVGLVQTATLVNKAREEAKNSVLFDDGDALQGTPLGDYVANKINDPKKPVDPSYTHPLYRLMNLMKYDVISLGNHEFNYGLDYLNKVISKTEFPVINSNVYKDDKDNNEENDQNYFKPYHVFEKEVEDESGQKQKVKIGVMGFVPPQVMNWDKANLEGKVKAKDIVETAKKMVPKMKAEGADVIVALAHSGVDKSGYNVGMENASYYLTEVPGVDAVLMGHSHTEVKDVFNGVPVVMPGVFGSNLGIIDMQLKKVNGKWEVQKEQSKPQLRPIADSKGNPLVQSDQHLVNEIKDDHQATIDYVNT”, the protein production entry was “failed”.

For the sequence “MLAGHLFAGVGEDVRLFKGITMTYGHNIELGDNAVVHDGVHLDDRGELVVGARASVSNGAHLYTHDHDVVDQTDVTNYRTEIGADARVTQGALVRAGVRVGENALVGSRSVVQGDVPAHHIAVGSPAESVRVKPGWLEHHHHHH”, the protein production entry is “failed”.

Consider “MLAQIEQEHYSKLHEILRLCRANLKNYDESLIQRAFFMCYRAHEGEKRASGEPFFYHPVEVAKLLVTELPLDGVSVAAALLHDVIEDSGYTYEDISAELGAEVADIVEGLTKISEIMVNRETTEAEGFRKMLLSMVKDIRVILIKFCDRLHNMRTLDSLPEHRRLRMALETRDIYAPLAHRFGLGKMKVDLENLALKYIDPEMYDYLLKKVRLSRNERVAYLNKMIAPIKDDLEKQGFTVELQGRAKHLYSIYNKMRMKNKKFDDIHDLYGIRVIIDTEKISDCFAVYGYITQQFPPIPQHFKDYISIPKHNGYQSLHSAIIGPKGHVVELQIRTRRMHEFAELGVAAHWRYKEKISKDDAALDSFLKWARELIKDADSATAFMEGFKLNLYHDEIYVFTPKGDMKVLPAGATPIDFAYAIHSEIGNGCIGAKVNGKIVRLNTELRSGDRVEVITSKSQRPKADWLKIVVTHRAKLKIRAAINEERRQEIEKGRSIWEKMLSGSKKLFTENDAIRAIRQHGIKTPADLFNALAKQQISSEEVLERISHPHRPAETHESTVQARAPHKDFAEIAREVQERLGYQKDEVTIAGLNNISYSYAKCCNPVPGDDIIGFVTTGGTVKIHRKNCVNVTNENSVKSERIVSVAWNRKVDTDFLAGIRIVGEDKIGMTNQITGVISKFDTNIRTIVLNAKDGIFTCNLMIFVKNTDKLTTLMDKLRKVQGVFTVERLSN”, for which the protein production result was “failed”.

Regarding “MLAQQIVGIFLMTTGTLFVFVAGLGVLRLPDVYMRLHASTKAGTLGVALNAAGLVVFHPDLGIFTRAFALVLFLLLTAPVAAHMIGRASYFAREEMGVSIWDGTVVDRMLDHRGEALFSTGAPEDGADASGSPS”, the protein production entry is given as “failed”.

For “MLARRIVAKHVTKTTALAMLGTTIVLVILQVLFTYLGELSNLKADYSAWQAFLYVLWGAPRYLYEILPISALIGAILGLGTLASNSELIVMRSVGISLWRIVGWVIRSALVLVLLSFALSEWVVPYTNERANSVKSHQSVAALGEVRGYWSREGQRFIYVDYANSQGQLKRIQVVDFDDNYRLKSVTNAEQGQFVKDGQWLLNHSQQMAIQGQGDAVLANAAKQPFSLALQPKYVHMVTIDPEDLSFSQLVSFMNYMREYSQVPKTYQLAFWKKVASPFALITLVLVACSFIFGPLRQQSMGFRLVIALFIGLGFYYLQDFLGYASLVYNPSPAWFVLGPIVLMFVAGSYLLYRAR”, the protein production result is reported as “failed”.

As for “MLASIISILRVFVLLFNTPLFIFAFLPVGFLGYFILQAYAKNPLFPKLWLVLASLFFYAFWNVKYLPLLVGSIVFNYFVALKIHQTQPNAYKRLWLILGLIANVSLLGFFKYTDFFLTNFNLIWKSHFETLHLILPLAISFFTLQQIAYLMDTYKQNQIMQPKMRERVSENAPILLNPPTSFFSLSHFLDYALFVSFFPQLIAGPIVHHSEMMPQFKDKNNQYLNYRNIALGLFIFSIGLFKKVVIADNTAHFADFGFDKATSLSFIQAWMTSLSYSFQLYFDFSGYCDMAIGIGLFFNIKLPINFNSPYKALNIQDFWRRWHITLSRFLKEYLYIPLGGNRVKELIVYRNLILVFLIGGFWHGAGWTFIIWGLLHGIALSVHRAYSHATRKFHFTMPKILAWLITFNFINLAWVFFRAKNLESALKVLKGMVGLNGVSLCHLSKEASEFLNRVNDNMIMHTIMYASPTFKMCVLMIIISFCLKNSSHLYQSNQMDWIKTTSACLLLSIGFLFIFASSQSVFLYFNF”, the protein production result was “failed”.

As for “MLASVRVNQLQRLLLSARRLSSSPIIPPSRLLHQRLFSTSDTDASAASFSSSHPKIQTLEGKASNKSRSTSSTTSLNEDELAKFSAIADTWWHSEGPFKPLHQMNPTRLAFIRSTLCRHFSKDPSSAKPFEGLKFIDIGCGGGLLSEPLARMGATVTGVDAVDKNVKIARLHADMDPVTSTIEYLCTTAEKLADEGRKFDAVLSLEVIEHVANPAEFCKSLSALTIPNGATVLSTINRTMRAYASTIVGAEYILRWLPKGTHQWSSFVTPEEMSMILQRASVDVKEIAGFVYNPITGRWLLSDDISVNYIAYGTKRKDLGDI”, the protein production result was “failed”.

As for “MLATPFWYNAALKVLKPVYRWRIKKRAENEMRYQQECRERFGPFQQPQNRHALWFHAVSVGETNAAQPLIEYYLKLGHPVLVTNTTKTGQARAKSLFLKSPYLELFQAVYLPVDQIFLLKQFFELYQPKLLALVETELWPNLIDQAQHYGVPTFLINARLSEKSAQGYARVSALSNAMLSRLTGLLAQDQSTQQRFIGLGLAREKAQVVGNIKFDIDVPLEHHHHHH”, the protein production entry is recorded as “failed”.

Take “MLDFNIEGLIPKNMEKRGELVLNEYLKEIEDVFNHRKIPENGIDDEKIKLFLKFLSMMDTDKDPKSVRIGEREARTYSKIHEELSSGFCHGIGRSGNLVDPQPKASGASIMYALTNKILESFFKQLGLNVHAIATPISTGMSISLCLSAARKKYGSNVVIYPYASHKSPIKAVSFVGMNMRLVETVLDGDRVYVPVEDIENAIKKEIELGNRPCVLSTLTFFPPRNSDDIVEIAKICENYDIPHIINGAYAIQNNYYLEKLKKAFKYRVDAVVSSSDKNLLTPIGGGLVYSTDAEFIKEISLSYPGRASATPVVNTLVSLLSMGSKNYLELVKNQKNSKKLLDELLNDLSKKTGGKFLDVESPIASCISVNSDPVEIAAKLYNLRVTGPRGIKKTDHFGNCYLGTYTHDYIVMNAAIGVRTEDIVNSVSKLEKILL”: the protein production entry is on record as “failed”.

For the sequence “MLDKVIYSLLRTQDPGLAQELYFRLQAKEQSFAEVAQKYSQGPESQTGGLVGPVEQSSLHPAMVQLLSSCQPGQISPPTRITEWYVIVRVEKFIPAQLEHHHHHH”, the protein production entry was “not failed”.

Consider “MLDNKDIATPSRTRALLDKYGFNFKKSLGQNFLIDVNIINNIIDASDIDAQTGVIEIGPGMGSLTEQLARHAKRVLAFEIDQRLIPVLNDTLSPYDNVTVINEDILKANIKEAVENHLQDCEKIMVVANLPYYITTPILLNLMQQDIPIDGYVVMMQKEVGERLNAEVGSKAYGSLSIVVQYYTETSKVLTVPKSVFMPPPNVDSIVVKLMQRTEPLVTVDNEEAFFKLAKAAFAQRRKTINNNYQNYFKDGKQHKEVILQWLEQAGIDPRRRGETLSIQDFAKLYEEKKKFPQLEN”, for which the protein production entry is listed as “failed”.
